Measurements from the supplement of paper PMC11246515.
± gives the standard deviation of the averaged measurements.

Assay: total protein half-life in vivo (active degradation + dilution); higher = more stable protein
[1] = E. coli NCM3722 delta-clpP delta-lon delta-hslV, growth: N-lim chemostat, doubling time 6 h
[2] = E. coli NCM3722 delta-clpP, growth: N-lim chemostat, doubling time 6 h
[3] = E. coli NCM3722 delta-hslV, growth: N-lim chemostat, doubling time 6 h
[4] = E. coli NCM3722 delta-lon, growth: N-lim chemostat, doubling time 6 h
[5] = E. coli NCM3722 delta-smpB, growth: N-lim chemostat, doubling time 6 h
[6] = wild type E. coli NCM3722, growth: C-lim chemostat, doubling time 3 h
[7] = wild type E. coli NCM3722, growth: C-lim chemostat, doubling time 6 h
[8] = wild type E. coli NCM3722, growth: C-lim chemostat, doubling time 12 h
[9] = wild type E. coli NCM3722, growth: N-lim chemostat, doubling time 6 h
[10] = wild type E. coli NCM3722, growth: N-lim chemostat, doubling time 12 h
[11] = wild type E. coli NCM3722, growth: P-lim chemostat, doubling time 6 h
[12] = wild type E. coli NCM3722, growth: P-lim chemostat, doubling time 12 h

Sequence	total protein half-life in vivo [1] [h]	total protein half-life in vivo [2] [h]	total protein half-life in vivo [3] [h]	total protein half-life in vivo [4] [h]	total protein half-life in vivo [5] [h]	total protein half-life in vivo [6] [h]	total protein half-life in vivo [7] [h]	total protein half-life in vivo [8] [h]	total protein half-life in vivo [9] [h]	total protein half-life in vivo [10] [h]	total protein half-life in vivo [11] [h]	total protein half-life in vivo [12] [h]
MAINNTGSRRLLVTLTALFAALCGLYLLIGGGWLVAIGGSWYYPIAGLVMLGVAWMLWRSKRAALWLYAALLLGTMIWGVWEVGFDFWALTPRSDILVFFGIWLILPFVWRRLVIPASGAVAALVVALLISGGILTWAGFNDPQEINGTLSADATPAEAISPVADQDWPAYGRNQEGQRFSPLKQINADNVHNLKEAWVFRTGDVKQPNDPGEITNEVTPIKVGDTLYLCTAHQRLFALDAASGKEKWHYDPELKTNESFQHVTCRGVSYHEAKAETASPEVMADCPRRIILPVNDGRLIAINAENGKLCETFANKGVLNLQSNMPDTKPGLYEPTSPPIITDKTIVMAGSVTDNFSTRETSGVIRGFDVNTGELLWAFDPGAKDPNAIPSDEHTFTFNSPNSWAPAAYDAKLDLVYLPMGVTTPDIWGGNRTPEQERYASSILALNATTGKLAWSYQTVHHDLWDMDLPAQPTLADITVNGQKVPVIYAPAKTGNIFVLDRRNGELVVPAPEKPVPQGAAKGDYVTPTQPFSELSFRPTKDLSGADMWGATMFDQLVCRVMFHQMRYEGIFTPPSEQGTLVFPGNLGMFEWGGISVDPNREVAIANPMALPFVSKLIPRGPGNPMEQPKDAKGTGTESGIQPQYGVPYGVTLNPFLSPFGLPCKQPAWGYISALDLKTNEVVWKKRIGTPQDSMPFPMPVPVPFNMGMPMLGGPISTAGNVLFIAATADNYLRAYNMSNGEKLWQGRLPAGGQATPMTYEVNGKQYVVISAGGHGSFGTKMGDYIVAYALPDDVK	6.446 ± 0.039	7.31 ± 0.86	5.96 ± 0.15	6.58 ± 0.58	6.14 ± 0.11	3.18 ± 0.17	6.44 ± 0.37	13.8 ± 0.65	6.04 ± 0.28	13.4 ± 0.83	6.54 ± 0.22	13.69 ± 0.084
MAISSRNTLLAALAFIAFQAQAVNVTVAYQTSAEPAKVAQADNTFAKESGATVDWRKFDSGASIVRALASGDVQIGNLGSSPLAVAASQQVPIEVFLLASKLGNSEALVVKKTISKPEDLIGKRIAVPFISTTHYSLLAALKHWGIKPGQVEIVNLQPPAIIAAWQRGDIDGAYVWAPAVNALEKDGKVLTDSEQVGQWGAPTLDVWVVRKDFAEKHPEVVKAFAKSAIDAQQPYIANPDVWLKQPENISKLARLSGVPEGDVPGLVKGNTYLTPQQQTAELTGPVNKAIIDTAQFLKEQGKVPAVANDYSQYVTSRFVQ	4.13 ± 0.43	4.56 ± 0.22	5.96 ± 0.29	5.56 ± 0.55	–	2.98 ± 0.11	5.75 ± 1.8	13.2 ± 2.6	5.5 ± 0.39	12.4 ± 0.93	6.77 ± 1.1	11 ± 0.14
MRYDKELTENEMIRQKILQQLLEWIECNLEHPISIEDIAQKSGYSRRNIQLLFRNFMHVPLGEYIRKRRLCRAAILVRLTAKSMLDIALSLHFDSQQSFSREFKKLFGCSPREYRHRDYWDLANIFPSFLIRQQQKTECRLINFPETPIFGNSFKYDIEVSNKSPDEEVKLRRHHLARCMKNFKTDIYFVSTFEPSTKSVDLLTVETFAGTVCEYADMPKEWTTTRGLYDPTHVIWTQA	> 8	–	–	–	–	–	–	–	–	–	–	–
MNYEIKQEEKRTVAGFHLVGPWEQTVKKGFEQLMMWVDSKNIVPKEWVAVYYDNPDETPAEKLRCDTVVTVPGYFTLPENSEGVILTEITGGQYAVAVARVVGDDFAKPWYQFFNSLLQDSAYEMLPKPCFEVYLNNGAEDGYWDIEMYVAVQPKHH	4.8 ± 0.93	2.75	3.39 ± 0.23	–	4.26 ± 1.8	2.22 ± 0.21	3.9 ± 0.048	5.57 ± 0.35	3.16	4.89 ± 0.49	2.6	6.49 ± 0.56
MEYKDPMHELLSSLEQIVFKDETQKITLTHRTTSCTEIEQLRKGTGLKIDDFARVLGVSVAMVKEWESRRVKPSSAELKLMRLIQANPALSKQLME [P0A9V5]	–	0.508 ± 0.1	–	0.337	0.409	–	–	–	0.277	–	–	–
MKLTLKNLSMAIMMSTIVMGSSAMAADSNEKIVIAHRGASGYLPEHTLPAKAMAYAQGADYLEQDLVMTKDDNLVVLHDHYLDRVTDVADRFPDRARKDGRYYAIDFTLDEIKSLKFTEGFDIENGKKVQTYPGRFPMGKSDFRVHTFEEEIEFVQGLNHSTGKNIGIYPEIKAPWFHHQEGKDIAAKTLEVLKKYGYTGKDDKVYLQCFDADELKRIKNELEPKMGMELNLVQLIAYTDWNETQQKQPDGSWVNYNYDWMFKPGAMKQVAEYADGIGPDYHMLIEETSQPGNIKLTGMVQDAQQNKLVVHPYTVRSDKLPEYTPDVNQLYDALYNKAGVNGLFTDFPDKAVKFLNKE	5.71 ± 0.74	6.03 ± 0.55	5.36 ± 0.34	7.08 ± 0.86	4.739 ± 0.036	3.12 ± 0.32	6.48 ± 0.5	11.4 ± 0.14	5.53 ± 0.091	10.9 ± 1.6	5.23 ± 0.11	11.7 ± 0.17
MRQVLSSLLVIAGLVSGQAIAAPESPPHADIRDSGFVYCVSGQVNTFNPSKASSGLIVDTLAAQFYDRLLDVDPYTYRLMPELAESWEVLDNGATYRFHLRRDVPFQKTDWFTPTRKMNADDVVFTFQRIFDRNNPWHNVNGSNFPYFDSLQFADNVKSVRKLDNHTVEFRLAQPDASFLWHLATHYASVMSAEYARKLEKEDRQEQLDRQPVGTGPYQLSEYRAGQFIRLQRHDDFWRGKPLMPQVVVDLGSGGTGRLSKLLTGECDVLAWPAASQLSILRDDPRLRLTLRPGMNVAYLAFNTAKPPLNNPAVRHALALAINNQRLMQSIYYGTAETAASILPRASWAYDNEAKITEYNPAKSREQLKSLGLENLTLKLWVPTRSQAWNPSPLKTAELIQADMAQVGVKVVIVPVEGRFQEARLMDMSHDLTLSGWATDSNDPDSFFRPLLSCAAIHSQTNLAHWCDPKFDSVLRKALSSQQLAARIEAYDEAQSILAQELPILPLASSLRLQAYRYDIKGLVLSPFGNASFAGVYREKQDEVKKP	–	–	6.48 ± 0.7	6.22 ± 0.64	5.939 ± 0.032	3.129 ± 0.013	5.88 ± 0.23	11.05 ± 0.028	6.39 ± 0.57	13.5 ± 0.91	6.18 ± 0.2	12 ± 1.2
